Where two headings read alike, the source gives them in different places. Bridge positions count the residues as written; N and C are the ends. Square brackets hold non-standard residues; d marks the D form. Ends that are not written are not given here. * marks the point of attachment. COCH2CH2S‑Chol = CC(C)CCC[C@@H](C)[C@H]1CC[C@H]2[C@@H]3CC=C4C[C@@H](SCCC(=O)*)CC[C@]4(C)[C@H]3CC[C@]12C; Abu(4-SO3H) = N[C@@H](CCS(=O)(=O)O)C(=O)O; PhLac = O=C(O)[C@@H](O)Cc1ccccc1; Aib = CC(C)(N)C(=O)O
Tests used:
[1] = target: human GLP-1 receptor (human) (UniProt P43220); test: cell-based or functional assay
human GLP-1 receptor (human), sequence (P43220 24-463): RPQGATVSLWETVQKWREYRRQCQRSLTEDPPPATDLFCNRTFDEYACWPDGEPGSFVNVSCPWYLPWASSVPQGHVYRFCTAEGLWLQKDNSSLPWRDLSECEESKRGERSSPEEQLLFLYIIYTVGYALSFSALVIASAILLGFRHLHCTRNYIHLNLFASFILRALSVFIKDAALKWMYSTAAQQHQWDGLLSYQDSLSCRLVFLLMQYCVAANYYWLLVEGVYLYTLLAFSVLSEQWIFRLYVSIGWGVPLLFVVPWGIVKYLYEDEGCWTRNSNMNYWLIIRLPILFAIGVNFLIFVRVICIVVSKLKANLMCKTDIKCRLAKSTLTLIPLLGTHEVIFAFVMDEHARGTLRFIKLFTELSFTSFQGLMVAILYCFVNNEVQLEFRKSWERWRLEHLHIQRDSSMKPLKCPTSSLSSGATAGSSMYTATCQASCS

[2] = target: human glucagon receptor (human) (UniProt P47871); test: cell-based or functional assay
human glucagon receptor (human), sequence (P47871 26-477): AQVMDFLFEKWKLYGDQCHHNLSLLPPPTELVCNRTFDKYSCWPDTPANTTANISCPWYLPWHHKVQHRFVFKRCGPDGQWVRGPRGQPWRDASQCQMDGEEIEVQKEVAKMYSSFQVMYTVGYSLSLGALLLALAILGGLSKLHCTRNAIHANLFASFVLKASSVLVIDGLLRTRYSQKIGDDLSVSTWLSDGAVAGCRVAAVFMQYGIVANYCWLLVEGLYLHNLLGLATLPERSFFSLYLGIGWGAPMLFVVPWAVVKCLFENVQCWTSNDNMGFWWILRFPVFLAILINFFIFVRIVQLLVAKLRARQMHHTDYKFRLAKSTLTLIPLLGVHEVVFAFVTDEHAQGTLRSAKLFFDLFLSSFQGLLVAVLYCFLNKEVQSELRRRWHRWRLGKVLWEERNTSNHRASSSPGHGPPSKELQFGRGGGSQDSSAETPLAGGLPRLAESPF

human glucagon receptor [3] = target: T1, human glucagon receptor (human, UniProt P47871 26-477); test: cell-based or functional assay
T1 sequence (P47871 26-477): as above

human glucagon receptor [4] = target: T1, human glucagon receptor; test: cell-based or functional assay; remark: listed apart in the source
human glucagon receptor [5] = target: T1, human glucagon receptor; test: SPA competition vs 125I-glucagon, receptor membranes
human GLP-1 receptor [6] = target: T2, human GLP-1 receptor (human, UniProt P43220 24-463); test: cell-based or functional assay
human glucagon receptor [7] = target: T1, human glucagon receptor; test: cell-based or functional assay; remark: listed apart in the source
human glucagon receptor [8] = target: T1, human glucagon receptor; test: cell-based or functional assay; remark: listed apart in the source
human glucagon receptor [9] = target: T1, human glucagon receptor; test: cell-based or functional assay; remark: listed apart in the source
human glucagon receptor [10] = target: T1, human glucagon receptor; test: SPA competition vs 125I-glucagon, receptor membranes; remark: listed apart in the source
human glucagon receptor [11] = target: T1, human glucagon receptor; test: cell-based or functional assay; remark: listed apart in the source
human glucagon receptor [12] = target: T1, human glucagon receptor; test: SPA competition vs 125I-glucagon, receptor membranes; remark: listed apart in the source
[13] = target: human glucagon receptor (human) (UniProt P47871); test: cell-based or functional assay; remark: listed apart in the source
[14] = target: human glucagon receptor (human) (UniProt P47871); test: cell-based or functional assay; remark: listed apart in the source
[15] = target: human GLP-1 receptor (human) (UniProt P43220); test: cell-based or functional assay; remark: listed apart in the source
human GLP-1 receptor [16] = target: T2, human GLP-1 receptor; test: cell-based or functional assay; remark: listed apart in the source
human glucagon receptor [17] = target: T1, human glucagon receptor; test: cell-based or functional assay; remark: listed apart in the source
human GLP-1 receptor [18] = target: T2, human GLP-1 receptor; test: cell-based or functional assay; remark: listed apart in the source
human glucagon receptor [19] = target: T1, human glucagon receptor; test: cell-based or functional assay; remark: listed apart in the source
human GLP-1 receptor [20] = target: T2, human GLP-1 receptor; test: cell-based or functional assay; remark: listed apart in the source
human glucagon receptor [21] = target: T1, human glucagon receptor; test: cell-based or functional assay; remark: listed apart in the source
human GLP-1 receptor [22] = target: T2, human GLP-1 receptor; test: cell-based or functional assay; remark: listed apart in the source
human glucagon receptor [23] = target: T1, human glucagon receptor; test: cell-based or functional assay; remark: listed apart in the source

## [E9, E16, K20] G(6-39) (peptide)
[1]
  GLP-1 agonism EC50: 1040 nM

## [E9, E16K20(lactam)]G(6-39) (peptide)
[1]
  GLP-1 EC50: 36 nM
  GLP-1 agonism EC50: 36.4 nM
[2]
  Glu IC50: 42 nM
  Glucagon IC50: 42 nM
  Glucagon antagonism IC50 (inhibit 0.2-0.8 nM glucagon): 42 nM

## [d-Cys^5(20kDaPEG), E^9]Glucagon(aa5-29)-NH2 (peptide)
Human glucagon receptor [3]
  IC50 (cAMP, inhibit 0.2 mM Glucagon): 14800 nM

B1: [hCys^9(SO3H)]Glucagon(aa4-29)-NH2 (peptide)
peptide: GTFTS[Abu(4-SO3H)]YSKYLDSRRAQDFVQWLMNT-NH2
modifications: N-terminus assumed
SMILES: CSCC[C@H](NC(=O)[C@H](CC(C)C)NC(=O)[C@H](Cc1c[nH]c2ccccc12)NC(=O)[C@H](CCC(N)=O)NC(=O)[C@@H](NC(=O)[C@H](Cc1ccccc1)NC(=O)[C@H](CC(=O)O)NC(=O)[C@H](CCC(N)=O)NC(=O)[C@H](C)NC(=O)[C@H](CCCNC(=N)N)NC(=O)[C@H](CCCNC(=N)N)NC(=O)[C@H](CO)NC(=O)[C@H](CC(=O)O)NC(=O)[C@H](CC(C)C)NC(=O)[C@H](Cc1ccc(O)cc1)NC(=O)[C@H](CCCCN)NC(=O)[C@H](CO)NC(=O)[C@H](Cc1ccc(O)cc1)NC(=O)[C@H](CCS(=O)(=O)O)NC(=O)[C@H](CO)NC(=O)[C@@H](NC(=O)[C@H](Cc1ccccc1)NC(=O)[C@@H](NC(=O)CN)[C@@H](C)O)[C@@H](C)O)C(C)C)C(=O)N[C@@H](CC(N)=O)C(=O)N[C@H](C(N)=O)[C@@H](C)O
Human glucagon receptor [4]
  cAMP IC50: 68.4 nM
  cAMP pA2: 7.22
Human glucagon receptor [5]
  IC50: 41.5 nM

B2: K10-chol G(6-29) (peptide)
peptide: [PhLac]TSDK(COCH2CH2S‑Chol)SKYLDERRAKDFVQWLMDT-NH2
modifications: lactam 11-15; N-terminus assumed
SMILES: CSCC[C@H](NC(=O)[C@H](CC(C)C)NC(=O)[C@H](Cc1c[nH]c2ccccc12)NC(=O)[C@H](CCC(N)=O)NC(=O)[C@@H](NC(=O)[C@H](Cc1ccccc1)NC(=O)[C@H](CC(=O)O)NC(=O)[C@@H]1CCCCNC(=O)CC[C@H](NC(=O)[C@H](CC(=O)O)NC(=O)[C@H](CC(C)C)NC(=O)[C@H](Cc2ccc(O)cc2)NC(=O)[C@H](CCCCN)NC(=O)[C@H](CO)NC(=O)[C@H](CCCCNC(=O)CCS[C@H]2CC[C@@]3(C)C(=CC[C@H]4[C@@H]5CC[C@H]([C@H](C)CCCC(C)C)[C@@]5(C)CC[C@@H]43)C2)NC(=O)[C@H](CC(=O)O)NC(=O)[C@H](CO)NC(=O)[C@@H](NC(=O)[C@@H](O)Cc2ccccc2)[C@@H](C)O)C(=O)N[C@@H](CCCNC(=N)N)C(=O)N[C@@H](CCCNC(=N)N)C(=O)N[C@@H](C)C(=O)N1)C(C)C)C(=O)N[C@@H](CC(=O)O)C(=O)N[C@H](C(N)=O)[C@@H](C)O
Human GLP-1 receptor [6]
  GLP-1 agonism EC50: 35.2 nM
Human glucagon receptor [7]
  Glucagon antagonism IC50 (inhibit 0.4 nM glucagon): 271 nM

B3: [hCys^9(SO3H)]Glucagon(aa2-29)-NH2 (peptide)
peptide: SQGTFTS[Abu(4-SO3H)]YSKYLDSRRAQDFVQWLMNT-NH2
Human glucagon receptor [4]
  cAMP IC50: 147 nM
Human glucagon receptor [5]
  IC50: 13.2 nM

B4: [PLA^6, D^9, D^28] Glucagon(aa6-29)-NH2 (peptide)
peptide: FTSDYSKYLDSRRAQDFVQWLMDT
modifications: PLA at position 6; C-terminal amide
notes: also called [PLA6, D9, D28]Glucagon(6-29)
Human glucagon receptor [8]
  IC50 (cAMP, inhibit 0.1 nM Glucagon): 1.32 nM
Human glucagon receptor [9]
  Glucagon antagonism IC50 (inhibit 0.5nM G): 9.03 nM
Human glucagon receptor [10]
  IC50: 9 nM

B5: [hCys^9(SO3H)]Glucagon(aa6-29)-NH2 (peptide)
peptide: FTS[Abu(4-SO3H)]YSKYLDSRRAQDFVQWLMNT-NH2
notes: also called [hCys(SO3)9]Glucagon(aa6-29)-NH2
Human glucagon receptor [4]
  cAMP IC50: 133 nM
  cAMP pA2: 7.16
Human glucagon receptor [11]
  cAMP IC50: 133 nM
  cAMP pA2: 7.16
Human glucagon receptor [5]
  IC50: 59.1 nM
Human glucagon receptor [12]
  IC50: 59.1 nM

B6: Aib depsi lactam G(2-29) (peptide)
peptide: [Aib]EGT[PhLac]TSDYSKYLDERRAKDFVQWLMDT-NH2
modifications: lactam 15-19; also: PLA6 linked to Thr5 by an ester bond (depsipeptide)
Human GLP-1 receptor [6]
  GLP-1 agonism EC50: 5.83 nM
Human glucagon receptor [7]
  Glucagon antagonism IC50 (inhibit 0.4 nM glucagon): 11.8 nM

B7: [E9, E16]G(6-39) (peptide)
peptide: FTSEYSKYLDERRAQDFVQWLMNTGPSSGAPPPS
modifications: C-terminal amide
[13]
  Glu IC50: 762 nM
  Glucagon antagonism IC50 (inhibit 0.2-0.8 nM glucagon): 762 nM
[14]
  Glucagon IC50: 762 nM

B8: E9, K12E16(lactam) glucagon(6-39) (peptide)
peptide: FTSEYSKYLDERRAQDFVQWLMNTGPSSGAPPPS
modifications: lactam bridge Lys12-Glu16 (native glucagon numbering); C-terminal amide
[15]
  GLP-1 EC50: 63 nM
[13]
  Glu IC50: 2010 nM
[14]
  Glucagon IC50: 2010 nM

B9: K30-chol G(6-30) (peptide)
peptide: [PhLac]TSDYSKYLDERRAKDFVQWLMDTK(COCH2CH2S‑Chol)-NH2
modifications: lactam 11-15; N-terminus assumed
SMILES: CSCC[C@H](NC(=O)[C@H](CC(C)C)NC(=O)[C@H](Cc1c[nH]c2ccccc12)NC(=O)[C@H](CCC(N)=O)NC(=O)[C@@H](NC(=O)[C@H](Cc1ccccc1)NC(=O)[C@H](CC(=O)O)NC(=O)[C@@H]1CCCCNC(=O)CC[C@H](NC(=O)[C@H](CC(=O)O)NC(=O)[C@H](CC(C)C)NC(=O)[C@H](Cc2ccc(O)cc2)NC(=O)[C@H](CCCCN)NC(=O)[C@H](CO)NC(=O)[C@H](Cc2ccc(O)cc2)NC(=O)[C@H](CC(=O)O)NC(=O)[C@H](CO)NC(=O)[C@@H](NC(=O)[C@@H](O)Cc2ccccc2)[C@@H](C)O)C(=O)N[C@@H](CCCNC(=N)N)C(=O)N[C@@H](CCCNC(=N)N)C(=O)N[C@@H](C)C(=O)N1)C(C)C)C(=O)N[C@@H](CC(=O)O)C(=O)N[C@H](C(=O)N[C@@H](CCCCNC(=O)CCS[C@H]1CC[C@@]2(C)C(=CC[C@H]3[C@@H]4CC[C@H]([C@H](C)CCCC(C)C)[C@@]4(C)CC[C@@H]32)C1)C(N)=O)[C@@H](C)O
Human GLP-1 receptor [6]
  GLP-1 agonism EC50: 14.4 nM
Human glucagon receptor [7]
  Glucagon antagonism IC50 (inhibit 0.4 nM glucagon): 575 nM

B10: [H1A2E3, E9, E16K20(Lactam), D28]G(1-29) (peptide)
peptide: HAEGTFTSEYSKYLDERRAKDFVQWLMDT-NH2
modifications: lactam 16-20; N-terminus assumed
SMILES: CSCC[C@H](NC(=O)[C@H](CC(C)C)NC(=O)[C@H](Cc1c[nH]c2ccccc12)NC(=O)[C@H](CCC(N)=O)NC(=O)[C@@H](NC(=O)[C@H](Cc1ccccc1)NC(=O)[C@H](CC(=O)O)NC(=O)[C@@H]1CCCCNC(=O)CC[C@H](NC(=O)[C@H](CC(=O)O)NC(=O)[C@H](CC(C)C)NC(=O)[C@H](Cc2ccc(O)cc2)NC(=O)[C@H](CCCCN)NC(=O)[C@H](CO)NC(=O)[C@H](Cc2ccc(O)cc2)NC(=O)[C@H](CCC(=O)O)NC(=O)[C@H](CO)NC(=O)[C@@H](NC(=O)[C@H](Cc2ccccc2)NC(=O)[C@@H](NC(=O)CNC(=O)[C@H](CCC(=O)O)NC(=O)[C@H](C)NC(=O)[C@@H](N)Cc2c[nH]cn2)[C@@H](C)O)[C@@H](C)O)C(=O)N[C@@H](CCCNC(=N)N)C(=O)N[C@@H](CCCNC(=N)N)C(=O)N[C@@H](C)C(=O)N1)C(C)C)C(=O)N[C@@H](CC(=O)O)C(=O)N[C@H](C(N)=O)[C@@H](C)O
Human GLP-1 receptor [16]
  GLP-1 agonism EC50: 0.11 nM
Human glucagon receptor [17]
  Glucagon antagonism IC50 (inhibit 0.2-0.8 nM glucagon): 129 nM
Human GLP-1 receptor [18]
  GLP-1 agonism EC50: 0.11 nM
Human glucagon receptor [19]
  Glucagon antagonism IC50 (inhibit 0.8 nM glucagon): 129 nM
Human GLP-1 receptor [20]
  GLP-1 agonism EC50: 0.11 nM
Human glucagon receptor [21]
  Glucagon antagonism IC50 (inhibit 0.8 nM glucagon): 129 nM
Human GLP-1 receptor [22]
  GLP-1 EC50: 0.2 nM
Human glucagon receptor [23]
  Glucagon IC50: 130 nM

B11: [hCys^9(SO3H)]Glucagon(aa5-29)-NH2 (peptide)
peptide: TFTS[Abu(4-SO3H)]YSKYLDSRRAQDFVQWLMNT-NH2
modifications: N-terminus assumed
SMILES: CSCC[C@H](NC(=O)[C@H](CC(C)C)NC(=O)[C@H](Cc1c[nH]c2ccccc12)NC(=O)[C@H](CCC(N)=O)NC(=O)[C@@H](NC(=O)[C@H](Cc1ccccc1)NC(=O)[C@H](CC(=O)O)NC(=O)[C@H](CCC(N)=O)NC(=O)[C@H](C)NC(=O)[C@H](CCCNC(=N)N)NC(=O)[C@H](CCCNC(=N)N)NC(=O)[C@H](CO)NC(=O)[C@H](CC(=O)O)NC(=O)[C@H](CC(C)C)NC(=O)[C@H](Cc1ccc(O)cc1)NC(=O)[C@H](CCCCN)NC(=O)[C@H](CO)NC(=O)[C@H](Cc1ccc(O)cc1)NC(=O)[C@H](CCS(=O)(=O)O)NC(=O)[C@H](CO)NC(=O)[C@@H](NC(=O)[C@H](Cc1ccccc1)NC(=O)[C@@H](N)[C@@H](C)O)[C@@H](C)O)C(C)C)C(=O)N[C@@H](CC(N)=O)C(=O)N[C@H](C(N)=O)[C@@H](C)O
Human glucagon receptor [4]
  cAMP IC50: 98.3 nM
  cAMP pA2: 6.77
Human glucagon receptor [5]
  IC50: 33.9 nM
